Substrate in data set [1]: O=C1OC(c2ccc(O)cc2)(c2ccc(O[C@@H]3O[C@H](C(=O)O)[C@@H](O)[C@H](O)[C@H]3O)cc2)c2ccccc21
The experiment in a line: malachite green phosphate assay coupled to phosphatase CP3, A620. The format is biochemical, Homo sapiens. The note with it: acceptor substrate, PAPS as donor, 37 °C, 20 min.

Substrate in data set [2]: [H][C@@]12CCc3cc(O[C@@H]4O[C@H](C(=O)O)[C@@H](O)[C@H](O)[C@H]4O)ccc3[C@@]1([H])CC[C@]1(C)[C@@H](O)CC[C@@]21[H]
The data set is described as above. The note with it: acceptor substrate, PAPS as donor, 37 °C, 20 min. It is filed as biochemical, Homo sapiens.

The record followed here is article PMC11989750, “Mating Increases CHST10 Activity in Rat Oviductal Mucosa to Induce the Synthesis of HNK-1 Glycoproteins: Possible Role in Sperm–Oviduct Interactions” (International Journal of Molecular Sciences, 2025).

B1: human recombinant CHST10 (Homo sapiens) (protein)
chain: TFKDPDVYSAKQEFLFLTTMPEVRKLPEEKHIPEELKPTGKELPDSQLVQPLVYMERLELIRNVCRDDALKNLSHTPVSKFVLDRIFVCDKHKILFCQTPKVGNTQWKKVLIVLNGAFSSIEEIPENVVHDHEKNGLPRLSSFSDAEIQKRLKTYFKFFIVRDPFERLISAFKDKFVHNPRFEPWYRHEIAPGIIRKYRRNRTETRGIQFEDFVRYLGDPNHRWLDLQFGDHIIHWVTYVELCAPCEIMYSVIGHHETLEDDAPYILKEAGIDHLVSYPTIPPGITVYNRTKVEHYFLGISKRDIRRLYARFEGDFKLFGYQKPDFLLN
notes: commercial recombinant protein (R&D Systems 6140-ST)
For orientation: Km means the substrate concentration at which the rate is half of its maximum. Consider B1, for which the results for the Michaelis-Menten constant (Km) in data set [1] and in data set [2] were 41.6 ± 2.4 µM and 73.9 ± 5.4 µM, respectively.
